B1: A8 trimer (bispecific antibody)
chain: QVQLVESGGGLVQAGGSLRLSCAASGGTFSTAAMGWFRQAPGEERECVASIGWRGVRTWYADSVKGRFTISRDNPQNTVYLQMNNLKSGDTAVYYCAASVGNYGLPWAHFEYDFWGQGIQVTVSSGSGSGSQVQLVESGGGLVQAGGSLRLSCAASGGTFSTAAMGWFRQAPGEERECVASIGWRGVRTWYADSVKGRFTISRDNPQNTVYLQMNNLKSGDTAVYYCAASVGNYGLPWAHFEYDFWGQGIQVTVSSGSGSGSQVQLVESGGGLVQAGGSLRLSCAASGGTFSTAAMGWFRQAPGEERECVASIGWRGVRTWYADSVKGRFTISRDNPQNTVYLQMNNLKSGDTAVYYCAASVGNYGLPWAHFEYDFWGQGTQVTVSSKHHHHHH
B2: C1 trimer (VHH)
chain: QVQLVESGGGLVQPGGSLRLSCAASGFTNDFYSIAWFRQAPGKEREGVSWLSVSDNTPTYVDSVKDRFTISRHNANNTVYLQMNMLKPEDTAIYYCAAGRFAGRDTWPSSYDYWGQGTQVTVSSGSGSGSQVQLVESGGGLVQPGGSLRLSCAASGFTNDFYSIAWFRQAPGKEREGVSWLSVSDNTPTYVDSVKDRFTISRHNANNTVYLQMNMLKPEDTAIYYCAAGRFAGRDTWPSSYDYWGQGTQVTVSSGSGSGSQVQLVESGGGLVQPGGSLRLSCAASGFTNDFYSIAWFRQAPGKEREGVSWLSVSDNTPTYVDSVKDRFTISRHNANNTVYLQMNMLKPEDTAIYYCAAGRFAGRDTWPSSYDYWGQGTQVTVSS
B3: C5 trimer (VHH)
chain: QVQLVESGGGSVQAGGSLTLSCVASGVTLGRHAIGWFRQAPGKERERVSCIRTFDGITSYVESTKGRFTISSNNAMNTVYLQMNSLKPEDTAVYFCALGVTAACSDNPYFWGQGTQVTVSSGSGSGSQVQLVESGGGSVQAGGSLTLSCVASGVTLGRHAIGWFRQAPGKERERVSCIRTFDGITSYVESTKGRFTISSNNAMNTVYLQMNSLKPEDTAVYFCALGVTAACSDNPYFWGQGTQVTVSSGSGSGSQVQLVESGGGSVQAGGSLTLSCVASGVTLGRHAIGWFRQAPGKERERVSCIRTFDGITSYVESTKGRFTISSNNAMNTVYLQMNSLKPEDTAVYFCALGVTAACSDNPYFWGQGTQVTVSS
notes: also called trimeric C5 nanobody; C5-6GS-C5-6GS-C5
B4: H3 trimer (VHH)
chain: QVQLVESGGGLVKTGGSLRLSCAASGRTFSTYSMGWFRQAPGKEREFVAGMRWTGSSTFYSDSVKGRFTVSRNNAKDTVYLHMNSLKPEDTAVYYCAITTIVRAYYTEYTEADFGSWGQGTQVTVSSGAVLAPQVQLVESGGGLVKTGGSLRLSCAASGRTFSTYSMGWFRQAPGKEREFVAGMRWTGSSTFYSDSVKGRFTVSRNNAKDTVYLHMNSLKPEDTAVYYCAITTIVRAYYTEYTEADFGSWGQGTQVTVSSGSGSGSQVQLVESGGGLVKTGGSLRLSCAASGRTFSTYSMGWFRQAPGKEREFVAGMRWTGSSTFYSDSVKGRFTVSRNNAKDTVYLHMNSLKPEDTAVYYCAITTIVRAYYTEYTEADFGSWGQGTQVTVSS

What was measured:
Test in all cases: cell-based or functional assay
[1] = molecular target: Spike protein on live SARS-CoV-2 Alpha strain (SARS-CoV-2 Alpha (B.1.1.7), UniProt P0DTC2 14-1273)
[2] = molecular target: Spike protein on live SARS-CoV-2 Delta strain (SARS-CoV-2 Delta (B.1.617.2), UniProt P0DTC2 14-1273)
[3] = molecular target: Spike protein on live SARS-CoV-2 Beta strain (SARS-CoV-2 Beta (B.1.351), UniProt P0DTC2 14-1273)

Row | Binder | ND 50 MN assay, live virus [1] [nM] | ND 50 MN assay, live virus [2] [nM] | ND 50 MN assay, live virus [3] [nM]
1 | B1 | 0.1 | 0.1 | 0.2
2 | B2 | 8.2 | 3.1 | 4.5
3 | B3 | 0.25 | 0.02 | 
4 | B4 | 0.6 | 0.3 | 

— patent US20230374116A1 (ROSALIND FRANKLIN INSTITUTE, published 2023)
